Data as given in PMC4714512.

The substances below were run against Human histone H3.5 (human) (UniProt Q6NXT2) (assay: native gel or EMSA; nucleosomes reconstituted with 146 base-pair human alpha-satellite DNA by salt dialysis from 2 M KCl, heated at 55 °C for 2 h, purified by preparative non-denaturing PAGE; analysed by non-denaturing 6 % PAGE and 18 % SDS-PAGE (histone composition)).

Stoichiometry N, 1:
Human histone H2A (from UniProt P04908 1-130) (natural protein)
Human histone H2B (from UniProt P06899 1-126) (natural protein)
Human histone H4 (from UniProt P62805 1-103) (natural protein)
